Some results are limits rather than exact numbers.

The target in the test is leptin receptor (LepRb), expressed on transfected HEK293 cells. Put plainly: cell-based or functional assay.

On to leptin (ligand), for which the cells with a p-STAT3 positive nucleus, immunofluorescence is greater than 80%.
Take “recombinant mouse Batotin protein (76 aa) with a six-amino-acid His tag at its C-terminus (from UniProt Q8K1L6 1-76) (ligand)”: the cells with a p-STAT3 positive nucleus after leptin, immunofluorescence was less than 10%.
Consider “recombinant human Batotin protein with a six-amino-acid His tag at its C-terminus (from UniProt Q96GX8 1-76) (ligand)”, for which the cells with a p-STAT3 positive nucleus after leptin, immunofluorescence was less than 10%.

The record behind these values is US20210162011A1.
